The data set “non-reducing SDS-PAGE” deals with the molecule itself. Nature of the data set: non-reducing SDS-PAGE.
Data set [1] deals with the molecule itself. Briefly: HPLC/ESI mass spectrometry.

B1: bZIP domain of Activating Transcription Factor 5 (ATF5), untagged (domain or fragment, UniProt Q9Y2D1 208-271, looked up)
chain: GDRKQKKRDQNKSAALRYRQRKRAEGEALEGECQGLEARNRELKERAESVEREIQYVKDLLIEV
The term stoichiometry N denotes the number of molecules, sites or subunits per partner or assembly. Regarding B1, the “monomer:dimer ratio (densitometry of the SDS-PAGE gel)” value in the data set “non-reducing SDS-PAGE” amounted to 1.7 dimer per 1.0 monomer. In addition, the “stoichiometry N” value in data set [1] amounted to 2.

Source of the values: PMC2599749 (Protein expression and purification, 2008).
